Usually EC50 stands for the concentration needed to bring the measured effect to its halfway point.

This is an account of results in patent publication US20120231013A1 (Amgen, published 2012).

Numbering of substitutions follows the chain as printed. “And” between values parts separate entries of the source, which are not always exact repeats. Identical values can stand only once.

The labels stand for the following.
B1: LRP-1 peptide LA15 (peptide)
chain: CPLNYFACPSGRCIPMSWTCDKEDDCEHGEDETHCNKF
notes: The end 2733 is inferred from the start of LA16 (2734)
B2: LRP-1 peptide LA26 (peptide)
chain: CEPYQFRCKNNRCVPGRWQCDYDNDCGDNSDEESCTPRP
notes: Tags implied (Ni-NTA, anti-HA detection), not described
B3: LRP-1 peptide LA25-26 (peptide)
chain: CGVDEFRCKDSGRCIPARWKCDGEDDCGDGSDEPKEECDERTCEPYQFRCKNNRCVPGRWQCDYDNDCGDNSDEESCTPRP
B4: LRP-1 peptide LA25 (peptide)
chain: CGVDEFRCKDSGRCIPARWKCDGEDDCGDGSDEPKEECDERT
notes: as for B2
B5: LRP-1 peptide LA23-24 (peptide)
chain: not shown
notes: as for B2
B6: LRP-1 peptide LA8-10 (peptide)
chain: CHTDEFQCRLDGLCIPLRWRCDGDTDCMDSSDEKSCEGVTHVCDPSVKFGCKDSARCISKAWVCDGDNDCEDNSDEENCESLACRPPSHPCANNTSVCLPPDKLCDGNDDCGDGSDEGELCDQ
notes: The end 1184 is inferred from the end of Cluster II; Tags implied, not described
B7: LRP-1 peptide LA4 (peptide)
chain: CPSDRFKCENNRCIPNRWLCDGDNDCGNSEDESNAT
notes: as for B2

In one assay the target is T1, recombinant human TIMP-3 (human, UniProt P35625 24-211).
T1 construct: also called HuTIMP-3; huTIMP-3
T1 sequence (looked up): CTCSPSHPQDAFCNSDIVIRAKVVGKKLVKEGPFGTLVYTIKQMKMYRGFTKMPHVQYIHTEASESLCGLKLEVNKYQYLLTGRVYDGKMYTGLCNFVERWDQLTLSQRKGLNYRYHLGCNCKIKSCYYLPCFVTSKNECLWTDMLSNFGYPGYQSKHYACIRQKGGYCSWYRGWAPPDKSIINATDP
Description: direct ELISA, coated huTIMP-3. How it is done: (§1) After incubation, the coating solution is removed and replaced with 250 microL/well of blocking buffer (1% BSA, TBS [pH 7.5], 1 mM CaCl₂) and incubated with shaking for 1 hour at room temperature. The plates are then washed three times with 200 microL/well with wash buffer 1 (TBS [pH 7.5], 1 mM CaCl₂). The LRP-1 peptides are titrated in assay buffer (0.1% BSA, TBS [pH 7.5], 1 mM CaCl₂, 0.02% Tween-20) in a separate polypropylene non-treated round-bottom 96-well plate (BD Falcon™) starting at 1 microM concentration and then diluted serially 4-fold for 8-points, with the last point buffer only. Then 100 microL/well of the diluted LRP-1 peptide titration is added to the TIMP-3 coated plate and allowed to bind for 1.5 hour at room temperature with shaking. After incubation, the plate is washed three times with 200 microL/well of wash buffer 2 (TBS [pH 7.5], 1 mM CaCl₂, 0.02% Tween-20). […] The assay plate is then washed three times with 200 microL/well with wash buffer 2. The plate is developed by adding 100 microL/well of 1:1 mixture of TMB and H₂O₂ (Pierce, Fisher Thermo Scientific, Rockford Il.), the reaction is stopped by adding 100 microL/well 2NH₂SO₄ (VWR), and read on a SpectraMax microplate reader (Molecular Devices, Sunnyvale, Calif.) at OD450 nm using SOFTmax Pro software version 3.1.2. Data is analyzed using GraphPad Prism 4.01 software. Binding of LRP-1 peptides to TIMP-3 is expressed as binding EC50.
On the technique in general: In an ELISA, binding on a coated surface is turned into a signal by an enzyme label.
As for B1, the concentration for a half-maximal effect (EC50) was 901 nM.

As for B2, the EC50 was determined as 118 nM.

Take B3: the concentration for a half-maximal effect (EC50) was 167 nM and 99 nM.

For B4, the EC50 is 742 nM.

For the molecule B5, the EC50 stood at 187 nM.

In another assay the target is T1, recombinant human TIMP-3. Description: indirect ELISA, huTIMP-3 captured by anti-TIMP-3 clone 277128. Here is the method: Then 100 microL/well of the diluted LRP-1 peptide titration is added to the TIMP-3 coated plate and allowed to bind for 1.5 hour at room temperature with shaking. After incubation, the plate is washed three times with 200 microL/well of wash buffer 2 (TBS [pH 7.5], 1 mM CaCl₂, 0.02% Tween-20). […] The assay plate is then washed three times with 200 microL/well with wash buffer 2. The plate is developed by adding 100 microL/well of 1:1 mixture of TMB and H₂O₂ (Pierce, Fisher Thermo Scientific, Rockford Il.), the reaction is stopped by adding 100 microL/well 2NH₂SO₄ (VWR), and read on a SpectraMax microplate reader (Molecular Devices, Sunnyvale, Calif.) at OD450 nm using SOFTmax Pro software version 3.1.2. Data is analyzed using GraphPad Prism 4.01 software. Binding of LRP-1 peptides to TIMP-3 is expressed as binding EC50.
After incubation, the plate contents are discarded and 250 microL/well of blocking buffer (1% BSA, TBS [pH 7.5], 1 mM CaCl₂) is added to the plate which is incubated with shaking for 1 hour at room temperature. The plate is then washed three times with 200 microL/well with wash buffer 1 (TBS [pH 7.5], 1 mM CaCl₂) followed by the addition of 100 microL of 20 nM recombinant human TIMP-3. The plate is incubated at room temperature for 1 hour. The LRP-1 peptides are titrated as described previously, and 100 microL/well of the diluted LRP-1 peptide titration is added to the TIMP-3 coated plate and allowed to bind for 1.5 hour at room temperature with shaking. After incubation, the plate is washed and the ELISA performed substantially as described previously for the direct binding ELISA.
Consider B1, for which the EC50 turned out to be 378 nM.

As to B2, the EC50 was found to be 179 nM.

Regarding B6, the 50% effective concentration (EC50) came out at 219 nM.

As for B3, the EC50 was 41 nM and 20 nM.

Turning to B4, the half-maximal effective concentration (EC50) was found to be 447 nM.

As to B5, the 50% effective concentration (EC50) is 85 nM.

A further assay concerns the target T2, recombinant TIMP-3 (human or mouse; Table 2 does not say which).
T2 construct: The methods say 'human or mouse TIMP-3'
Description: binding ELISA, Assay 3.
For B1, the 50% effective concentration (EC50) is roughly 1500 nM.

As for B7, the EC50 was roughly 3000 nM.

Take B6: the half-maximal effective concentration (EC50) is 657 nM and 1040 nM.

Take B4: the EC50 is roughly 1000 nM.

In another assay the target is T2, recombinant TIMP-3 (human or mouse; …). Put plainly: AlphaScreen, biotinylated TIMP-3, Assay 2. How it is done:
(§2) Peptides were also evaluated by AlphaScreen® (Amplified Luminescent Proximity Homogeneous Assay; PerkinElmer, Waltham, Mass.) a very sensitive non-radioactive homogeneous assay technology that allows the screening of a large range of biological interactions and activities, substantially according to the manufacturer's instructions. Briefly, all dilutions are made in AlphaScreen® Buffer: [40 mM HEPES pH 7.5, 100 mM NaCl, 1 mM CaCl2, 0.1% BSA, 0.05% Tween-20]. The LRP-1 peptides are titrated in a separate polypropylene 96-well plate (Falcon) starting at 4 microM concentration and then diluted serially 3-fold for 12-points, with the last point buffer only. First 2 microL/well of protein titration curve is added to white, small volume, 384-well assay plate (Greiner Bio-One, Stonehouse, UK) in duplicate. Next, 2 microL of biotinylated (AFS, in-house conjmicroGation) recombinant human or mouse TIMP-3, is added at 12 nM (or 3 nM final assay concentration) to the assay plate. Lastly, in subdued light 4 microL of a mixture of streptavidin donor beads, anti-mouse IgG acceptor beads (PerkinElmer) both diluted to 20 microG/mL (10 microG/mL final assay concentration) and 2 nM (1 nM final concentration) rat-anti-HA (clone3F10)-HRP (Roche Diagnostics) is added to the plates. Plates containing 8 microL final assay volme are covered with TopSeal A (to prevent evaporation), spun quickly at 1000 rpm, and incubated overnight (covered with foil to prevent light exposure) before reading on Fusion plate reader (PerkinElmer) using AlphaScreen® parameters (excitation 680 nm and emission 520-620 nm). Data is analyzed using GraphPad Prism 4.01 software. Binding to TIMP-3 is reported as total signal (cps).
Background: Alpha assays give light when donor and acceptor beads are brought close together.
As to B1, the “total signal (cps)” value is 2000 cps.

B7: the “total signal (cps)” value was 2000 cps.

For the molecule B6, the “total signal (cps)” value was found to be 100000 cps.

As to B3, the “total signal (cps)” value is 5000 cps.

With B4, the “total signal (cps)” value is 2000 cps.

Turning to B5, the “total signal (cps)” value worked out at 2000 cps.

The next assay deals with T3, recombinant mouse TIMP-3 (mouse, UniProt P39876 24-211).
T3 construct: also called MuTIMP-3
T3 sequence (looked up): T1 sequence (looked up) with T51S, D87E, Q103H, I183S
Description: direct ELISA, coated muTIMP-3. Here is the method: as §1
For B2, the concentration giving a half-maximal response (EC50) amounted to 134 nM.

For the molecule B7, the binding result is “no binding (tested: titration from 1 microM)”.

B6: the concentration for a half-maximal effect (EC50) worked out at 696 nM.

Consider B3, for which the EC50 was 117 nM and 80 nM.

For B5, the EC50 came out at 140 nM.

For another assay, the target named is MMP-13 (UniProt P45452 20-471, limits assumed). Put plainly: cell-based or functional assay.
B1: the “Direct Inhibition of MMP13 (% decrease), 1000 nM” value worked out at 61%.

As to B2, the “Direct Inhibition of MMP13 (% decrease), 1000 nM” value worked out at 1%.

Regarding B6, the “Direct Inhibition of MMP13 (% decrease), 1000 nM” value was -6%.

The target of a further assay is T1, recombinant human TIMP-3. Put plainly: cell-based or functional assay.
B1: the “% of the inhibitory activity of TIMP-3 + peptide compared to TIMP-3 alone, 16 nM” value (from here on “% of the inhibitory activity … 16 nM”) amounted to 104%; the “% of the inhibitory activity of TIMP-3 + peptide compared to TIMP-3 alone, 80 nM” value (shortened to “% of the inhibitory activity … 80 nM”) is 95%; the “% of the inhibitory activity of TIMP-3 + peptide compared to TIMP-3 alone, 400 nM” value (“% of the inhibitory activity … 400 nM” below) amounted to 67%; the “% of the inhibitory activity of TIMP-3 + peptide compared to TIMP-3 alone, 2000 nM” value (from here on “% of the inhibitory activity … 2000 nM”) came out at 58%.

With B2, the “% of the inhibitory activity … 16 nM” value amounted to 96%; the “% of the inhibitory activity … 80 nM” value was 109%; the “% of the inhibitory activity … 400 nM” value amounted to 112%; the “% of the inhibitory activity … 2000 nM” value came to 108%.

With B6, the “% of the inhibitory activity … 16 nM” value worked out at 94%; the “% of the inhibitory activity … 80 nM” value worked out at 89%; the “% of the inhibitory activity … 400 nM” value came to 84%; the “% of the inhibitory activity … 2000 nM” value came out at 93%.

In the case of B3, the “% of the inhibitory activity … 16 nM” value was determined as 97%; the “% of the inhibitory activity … 80 nM” value worked out at 101%; the “% of the inhibitory activity … 400 nM” value amounted to 105%; the “% of the inhibitory activity … 2000 nM” value is 101%.

In the case of B4, the “% of the inhibitory activity … 16 nM” value turned out to be 96%; the “% of the inhibitory activity … 80 nM” value stood at 95%; the “% of the inhibitory activity … 400 nM” value came to 94%; the “% of the inhibitory activity … 2000 nM” value amounted to 94%.

As for B5, the “% of the inhibitory activity … 400 nM” value amounted to 92% and the “% of the inhibitory activity … 2000 nM” value was 53%.

The target of a further assay is T2, recombinant TIMP-3 (human or mouse; …). Description: AlphaScreen, biotinylated TIMP-3, Assay 1. How it is done:
as §2
Take B1: the “total signal (cps)” value was found to be 2200 cps.

On to B2, for which the “total signal (cps)” value turned out to be 2200 cps.

Turning to B7, the “total signal (cps)” value was determined as 2200 cps.

In the case of B6, the “total signal (cps)” value came to 110000 cps.

As for B3, the “total signal (cps)” value stood at 20000 cps.

For the molecule B4, the “total signal (cps)” value was found to be 5000 cps.

Regarding B5, the “total signal (cps)” value worked out at 2200 cps.

For a further assay the target is unchanged. Put plainly: binding ELISA, Assay 2.
Regarding B1, the EC50 was roughly 5000 nM.

With B2, the concentration giving a half-maximal response (EC50) amounted to 300 nM.

As for B7, the half-maximal effective concentration (EC50) worked out at 900 nM.

Consider B3, for which the 50% effective concentration (EC50) amounted to 673 nM.

Consider B4, for which the EC50 came out at 1220 nM.

Take B5: the concentration for a half-maximal effect (EC50) was roughly 600 nM.
